Laboratory results: paper PMC3861647

Target: MBP-RU678 (human)
Assay: ITC; MicroCal ITC200, 25 °C, HBS (10 mM HEPES, 150 mM NaCl, pH 7.4); cell: 50 μM MBP-RU678; syringe: 0.5 mM Srr1-BR or Srr2-BR; single binding mode

Substance	Kd	stoichiometry N
Srr2-BR (untagged recombinant binding region of Srr2) (domain or fragment)	12 µM	1
Srr1-BR (untagged recombinant binding region of Srr1) (domain or fragment)	69 µM	1
